According to patent US20250304681A1 (BEIJING ECHO BIOTECH, published 2025):
One block for each binder: values may come before it.

Assays:
[1] = target: T1, RAGE(1-404)-3xflag-eBFP (plasmid p605) on HepG2 cells; experiment: flow cytometry on fixed p605-HepG2 cells, 1 ug and 5 ug in 100 uL, FITC anti-HA detection
T1 construct: also called p605-HepG2 cells; p605 cells
Procedure: (5) 1 μg and 5 μg of antiRAGE(A90)-Fc were respectively added to 100 μL of the incubation system to incubate at 4° C. for 2 h. The cells were washed and resuspended with 0.5% BSA diluted in PBS.
(6) 1 μL of FITC-conjugated antiHA antibody was respectively added to cells without A90-Fc antibody and cells incubated with A90-Fc antibody to incubate at room temperature for 1 h. The cells were washed twice with PBS, and then resuspended with PBS.

Mouse-RAGE-ECD-Fc(IgG1) = target: T2, Mouse-RAGE-ECD-Fc(IgG1) (mouse); experiment: ELISA, antigen with and without NHS-biotin label coated at 4 ug/mL
T2 construct: also called P38410

Cyno-RAGE-ECD-His = target: T3, Cyno-RAGE-ECD-His (monkey (cyno), UniProt Q15109 23-342 (human entry)); experiment: as above
T3 construct: also called P38407
T3 chain: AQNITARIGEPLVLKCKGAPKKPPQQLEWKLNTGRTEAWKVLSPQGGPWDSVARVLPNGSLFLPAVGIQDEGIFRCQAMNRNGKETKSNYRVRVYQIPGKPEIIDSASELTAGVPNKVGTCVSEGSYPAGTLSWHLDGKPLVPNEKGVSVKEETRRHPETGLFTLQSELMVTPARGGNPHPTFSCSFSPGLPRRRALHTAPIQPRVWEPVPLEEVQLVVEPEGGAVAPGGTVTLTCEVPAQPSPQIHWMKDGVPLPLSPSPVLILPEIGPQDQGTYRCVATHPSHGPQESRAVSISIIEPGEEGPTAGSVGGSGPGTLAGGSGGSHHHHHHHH

Cyno-RAGE-ECD-Fc(IgG1) = target: T4, Cyno-RAGE-ECD-Fc(IgG1) (monkey (cyno)); experiment: as above
T4 construct: also called P38408

Mouse-RAGE-ECD-His = target: T5, Mouse-RAGE-ECD-His (mouse, UniProt Q62151 23-340); experiment: as above
T5 construct: also called P38409

Human-RAGE-ECD-His = target: T6, Human-RAGE-ECD-His (human, UniProt Q15109 23-342); experiment: as above
T6 construct: also called P38405

Human-RAGE-ECD-Fc(IgG1) = target: T7, Human-RAGE-ECD-Fc(IgG1) (human); experiment: ELISA, antigen coated at 2 ug/mL, anti-human kappa+lambda-HRP
T7 construct: also called P38406

[2] = target: T8, RAGE(1-404)-3xflag-mCherry (plasmid p318) on 293F cells (human); experiment: flow cytometry on fixed p318-293F cells, 5 ug scFv in 100 uL, FITC anti-HA detection
T8 construct: also called p318 cells

T2 sequence (chain, as listed by the source limits assumed): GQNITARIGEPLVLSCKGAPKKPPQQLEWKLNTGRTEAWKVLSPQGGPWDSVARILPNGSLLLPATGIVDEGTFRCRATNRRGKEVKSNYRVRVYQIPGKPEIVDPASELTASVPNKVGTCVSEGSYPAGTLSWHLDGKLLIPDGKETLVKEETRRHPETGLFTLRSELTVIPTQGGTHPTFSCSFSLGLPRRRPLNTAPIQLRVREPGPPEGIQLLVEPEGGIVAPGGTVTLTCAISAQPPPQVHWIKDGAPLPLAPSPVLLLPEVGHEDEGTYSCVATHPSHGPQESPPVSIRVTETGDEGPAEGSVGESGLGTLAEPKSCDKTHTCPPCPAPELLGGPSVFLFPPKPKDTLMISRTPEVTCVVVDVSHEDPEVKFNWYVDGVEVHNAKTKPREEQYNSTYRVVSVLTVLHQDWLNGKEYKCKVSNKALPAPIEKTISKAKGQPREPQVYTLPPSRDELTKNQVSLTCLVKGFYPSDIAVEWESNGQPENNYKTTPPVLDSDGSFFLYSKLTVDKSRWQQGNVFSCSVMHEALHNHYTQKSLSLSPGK
T5 sequence (Q62151 other isoform, or with tags, fused parts or gaps): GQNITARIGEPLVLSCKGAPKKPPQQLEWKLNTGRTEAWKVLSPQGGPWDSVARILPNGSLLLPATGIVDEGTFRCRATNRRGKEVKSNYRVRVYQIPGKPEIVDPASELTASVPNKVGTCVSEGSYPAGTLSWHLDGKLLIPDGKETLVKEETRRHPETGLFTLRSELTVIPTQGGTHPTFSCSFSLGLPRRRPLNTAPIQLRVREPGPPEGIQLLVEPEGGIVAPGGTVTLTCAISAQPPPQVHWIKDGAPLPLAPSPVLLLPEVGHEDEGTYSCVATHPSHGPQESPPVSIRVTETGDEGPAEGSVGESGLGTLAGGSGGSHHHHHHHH

binding result [1]: binds
B1: antiRAGE(A90)-Fc (antibody, human IgG1, kappa)
heavy: not shown
light: NIQLTQSPSTLSASVGDRVTITCRASQSISSWLAWYQQKPGKAPKLLIYQASSLESGVPSRFSGSGSGTEFTLTIRSLQPEDFAVYFCQQYKDYPLTFGGGTKVDIKRTVAAPSVFIFPPSDEQLKSGTASVVCLLNNFYPREAKVQWKVDNALQSGNSQESVTEQDSKDSTYSLSSTLTLSKADYEKHKVYACEVTHQGLSSPVTKSFNRGEC
notes: also called antiRAGE(A90)-Fc-G4S-HA; antiRAGE-Fc-G4S-HA-ALFA

binding result (Mouse-RAGE-ECD-Fc(IgG1)): binds
binding result (Cyno-RAGE-ECD-His): binds
binding result (Cyno-RAGE-ECD-Fc(IgG1)): binds
binding result (Mouse-RAGE-ECD-His): binds
binding result (Human-RAGE-ECD-His): binds
binding result (Human-RAGE-ECD-Fc(IgG1)): binds
B2: h11E6.16 (antibody, human IgG1, kappa, V domains shown)
VH: EIQLVQSGAEVKKPGASVKVSCKASGYTFTNFGMNWVRQAPGQGLEWMGYINTNTGESIYSEEFKGRFTFTLDTSTSTAYMELSSLRSEDTAVYFCARSRMVTAYGMDYWGQGTSVTVSS
VL: EIVMTQSPATLSLSPGERATLSCKASQNVGTAVAWYQQKPGQSPRLLIFSASNRYTGVPARFSGSGSGTDFTLTISSLQSEDFAVYFCQQYSSYPLTFGQGTKLEIKR
notes: also called h11E6.16 antibody (P38411); P38411

binding result [2]: binds
B3: 6xHis-antiRAGE(A90)-scFv-G4S-HA (scFv)
scFv: HHHHHHQVQLVQSGAEVKKPGSSVKVSCKASGGTFNNYAINWARQAPGQGLEWMGRIVPFFDVTNYAQKFQGRVTITADKSTSTAYMELSSLRSEDTAIYYCAIGSFNWNSGAFDIWGQGTPVTVSSGGGGSGGGGSGGGGSNIQLTQSPSTLSASVGDRVTITCRASQSISSWLAWYQQKPGKAPKLLIYQASSLESGVPSRFSGSGSGTEFTLTIRSLQPEDFAVYFCQQYKDYPLTFGGGTKVDIKGGGGSYPYDVPDYA
notes: also called antiRAGE scFv antibody; antiRAGE-scFv
